Molecular target: T1, FRET substrate peptide KLRMKLPKP
T1 chain: KLRMKLPKP

B1: human cathepsin S wild-type, amino acids 17 to 331, C-terminal His-tag (CTSS-His) (protein)
chain: LPDSVDWREKGCVTEVKYQGSCGACWAFSAVGALEAQLKLKTGKLVSLSAQNLVDCSTEKYGNKGCNGGFMTTAFQYIIDNKGIDSDASYPYKAMDQKCQYDSKYRAATCSKYTELPYGREDVLKEAVANKGPVSVGVDARHPSFFLYRSGVYYEPSCTQNVNHGVLVVGYGDLNGKEYWLVKNSWGHNFGEEGYIRMARNKGNHCGIASFPSYPEI
cleavage in FRET assay: validating the identified peptide by showing in a FRET assay that it is cleaved by cathepsin S

— patent publication US20240352070
